Patent US20240317834A1, “COMPOSITIONS AND METHODS FOR NEUROLOGICAL DISEASES” (CODA BIOTHERAPEUTICS, INC., priority 2020, published 2024)
Changes are numbered by the printed parent chain. In names and notes the source's numbering stands.

Test system: Lenti-X 293T cells
Assay: YFP fluorescence quenching anion reporter plate reader assay of engineered receptors stimulated with acetylcholine or a non-native ligand
Type: cell-based
Settings: for percent quench of YFP fluorescence, 30 nM TC-6683: TC-6683 30 nM; for percent quench of YFP fluorescence, 300 nM TC-6683: TC-6683 300 nM; for percent quench of YFP fluorescence, 3 uM TC-6683: TC-6683 3 uM; for percent quench of YFP fluorescence, 30 uM TC-6683: TC-6683 30 uM; for percent quench of YFP fluorescence, 100 uM TC-6683: TC-6683 100 uM; for percent quench of YFP fluorescence, 10 uM ach: acetylcholine 10 uM; for percent quench of YFP fluorescence, 100 uM ach: acetylcholine 100 uM; for percent quench of YFP fluorescence, 1 mM ach: acetylcholine 1 mM; for percent quench of YFP fluorescence, 3 mM ach: acetylcholine 3 mM
Source text: To screen these mutant LGICs for those having novel response profiles to ligands, an anion reporter assay was developed to assess the function of the LGICs in a high throughput format. In this assay, cells expressing a YFP reporter whose fluorescence is quenched in the presence of anion are transfected with DNA encoding the channel of interest. Upon exposure to ligand, channels that are activated will flux anion, resulting in a dose-dependent quench of the YFP that can be detected on a plate reader. The greater the quench signal (i.e., the more positive the value), the higher the ligand activity on the receptor is.
Lenti-X 293T cells (LX293T, Clontech) were maintained in DMEM containing 10% FBS and 1% penicillin/streptomycin (Invitrogen). […] Two days before assay, cells were split at a density of 20,000 cells/well in a 96-well tissue culture plate coated with poly-d lysine (Thermo Scientific). The next day, the cells were transiently transfected with 0.1 μg of DNA per well using standard Fugene protocol (Promega). On the day of assay, cells were washed 2 times in 1× extracellular solution (1×ECS: 140 mM NaCl, 5 mM KCl, 1 mM MgCl2, 2 mM CaCl2), 10 mM HEPES, 10 mM glucose, pH 7.2, mOsms 300). After the last wash, 100 μL of 1×ECS was added to the wells and the plate was incubated at 37° C. for 30 min. While incubating the plate, the drugs were diluted to a 2× concentration in 1×ECS-NaI (same components as 1×ECS except the 140 mM NaCl was replaced by 140 mM NaI). The plates were then read on a Flexstation3 (Molecular Devices). Each well, 8 wells at a time, of the plate is read for 2 min using a Flexstation3 (Molecular Devices) as follows: 1) a baseline YFP fluorescence is read for 17 sec, 2) 100 μL of ligand is added, and 3) the changes in YFP fluorescence are then measured every 1.3 sec for 1 minute and 43 seconds. The percent quench is calculated from the average fluorescence of the last 10 seconds of the read divided by the baseline average of the first 15 seconds prior to the ligand addition.
FIGS. 1A-1J provide heat maps of the percent quench of YFP fluorescence following stimulation by various doses of either acetylcholine or the non-native ligand as indicated in the Figures. CODA71 (SEQ ID NO: 33) was used as a control, and CODA75 (SEQ ID NO: 29, a non-responding chimeric engineered receptor) was used as the negative control. Quenching of the fluorescence signal, as indicated by blue shaded cells, indicate the level of engineered receptor activation by the non-native ligand at that concentration.

B1: CODA326: engineered chimeric LGIC receptor, L131A in SEQ ID NO: 33 (protein)
chain: MRCSPGGVWLALAASLLHVSLQGEFQRKLYKELVKNYNPLERPVANDSQPLTVYFSLSLLQIMDVDEKNQVLTTNIWLQMSWTDHYLQWNVSEYPGVKTVRFPDGQIWKPDILLYNSADERFDATFHTNVAVNSSGHCQYLPPGIFKSSCPMDLKNFPMDVQTCKLKFGSWSYGGWSLDLQMQEADISGYIPNGEWDLVGIPGKRSERFYECCKEPYPDVTFTVTMRRRMGYYLIQMYIPSLLIVILSWISFWINMDAAPARVGLGITTVLTMTTQSSGSRASLPKVSYVKAIDIWMAVCLLFVFSALLEYAAVNFVSRQHKELLRFRRKRRHHKSPMLNLFQEDEAGEGRFNFSAYGMGPACLQAKDGISVKGANNSNTTNPPPAPSKSPEEMRKLFIQRAKKIDKISRIGFPMAFLIFNMFYWIIYKIVRREDVHNQ
modifications: synthetic sequence of chimeric LGIC
- YFP fluorescence quenching using CNL001 (1 nM CNL001, first column): 76.424%
- YFP fluorescence quenching using CNL001 (1 nM CNL001, second column): 80.567%
- YFP fluorescence quenching using TC-5619/Bradanicline (3 nM brd): 72.24%
- YFP fluorescence quenching using Varenicline (3 nM var, first column): −5.939
- YFP fluorescence quenching using Varenicline (3 nM var, second column): −2.294
- YFP fluorescence quenching using CNL001 (10 nM CNL001, first column): 80.284%
- YFP fluorescence quenching using CNL001 (10 nM CNL001, second column): 81.232%
- YFP fluorescence quenching using TC-5619/Bradanicline (30 nM brd): 77.4%
- YFP fluorescence quenching using Facinicline (30 nM fac): 69.94
- YFP fluorescence quenching using Varenicline (30 nM var, first column): 68.663
- YFP fluorescence quenching using Varenicline (30 nM var, second column): 70.718
- YFP fluorescence quenching using CNL001 (50 nM CNL001, first column): 81.575%
- YFP fluorescence quenching using CNL001 (50 nM CNL001, second column): 82.544%
- YFP fluorescence quenching using ABT-126 (50 nM abt): −21.91%
- YFP fluorescence quenching using CNL001 (100 nM CNL001, first column): 81%
- YFP fluorescence quenching using CNL001 (100 nM CNL001, second column): 81.718%
- YFP fluorescence quenching using CNL002 (100 nM CNL002): 27.88%
- YFP fluorescence quenching using ABT-126 (100 nM abt): −0.5%
- YFP fluorescence quenching using AZD-0328 (100 nM azd0328): 80.39%
- YFP fluorescence quenching using ABT-126 (300 nM abt): 34.86%
- YFP fluorescence quenching using AZD-0328 (300 nM azd0328): 82.07%
- YFP fluorescence quenching using TC-5619/Bradanicline (300 nM brd): 78.02%
- YFP fluorescence quenching using Facinicline (300 nM fac): 80.07
- YFP fluorescence quenching using Varenicline (300 nM var, first column): 79.88
- YFP fluorescence quenching using Varenicline (300 nM var, second column): 79.742
- YFP fluorescence quenching using Varenicline (500 nM var, first column): 79.311
- YFP fluorescence quenching using Varenicline (500 nM var, second column): 80.029
- YFP fluorescence quenching using CNL001 (1 uM CNL001, first column): 82.334%
- YFP fluorescence quenching using CNL001 (1 uM CNL001, second column): 81.539%
- YFP fluorescence quenching using CNL002 (1 uM CNL002): 73.79%
- YFP fluorescence quenching using ABT-126 (1 uM abt): 56.66%
- YFP fluorescence quenching using TC-6987 (1 uM tc6987): 73.37
- YFP fluorescence quenching using Varenicline (1 uM var, first column): 80.952
- YFP fluorescence quenching using Varenicline (1 uM var, second column): 79.329
- YFP fluorescence quenching using TC-6987 (10 uM tc6987): 78.18
- YFP fluorescence quenching using CNL002 (30 uM CNL002): 75.89%
- YFP fluorescence quenching using AZD-0328 (30 uM azd0328): 82.23%
- YFP fluorescence quenching using Facinicline (30 uM fac): 78.32
- YFP fluorescence quenching using TC-6987 (500 uM tc6987): 75.42
- percent quench of YFP fluorescence, 30 nM TC-6683: −16.28%
- percent quench of YFP fluorescence, 300 nM TC-6683: −11.73%
- percent quench of YFP fluorescence, 3 uM TC-6683: −2.38%
- percent quench of YFP fluorescence, 30 uM TC-6683: −9.77%
- percent quench of YFP fluorescence, 100 uM TC-6683: 0.97%
- percent quench of YFP fluorescence, 10 uM ach: 7.43%
- percent quench of YFP fluorescence, 100 uM ach: 73.57%
- percent quench of YFP fluorescence, 1 mM ach: 71.8%
- percent quench of YFP fluorescence, 3 mM ach: 74.49%

B2: CODA330: engineered chimeric LGIC receptor, L131F in SEQ ID NO: 33 (protein)
chain: B1 chain with A131F
modifications: synthetic sequence of chimeric LGIC
- YFP fluorescence quenching using CNL001 (1 nM CNL001, first column): 76.289%
- YFP fluorescence quenching using CNL001 (1 nM CNL001, second column): 78.896%
- YFP fluorescence quenching using TC-5619/Bradanicline (1 nM brd): −12.4%
- YFP fluorescence quenching using TC-5619/Bradanicline (3 nM brd): 25.12%
- YFP fluorescence quenching using Varenicline (3 nM var, first column): −3.016
- YFP fluorescence quenching using Varenicline (3 nM var, second column): −1.452
- YFP fluorescence quenching using CNL001 (10 nM CNL001, first column): 79.339%
- YFP fluorescence quenching using CNL001 (10 nM CNL001, second column): 80.245%
- YFP fluorescence quenching using TC-5619/Bradanicline (10 nM brd): 72.19%
- YFP fluorescence quenching using TC-5619/Bradanicline (30 nM brd): 76.35%
- YFP fluorescence quenching using Facinicline (30 nM fac): 2.9
- YFP fluorescence quenching using Varenicline (30 nM var, first column): −0.193
- YFP fluorescence quenching using Varenicline (30 nM var, second column): −1.853
- YFP fluorescence quenching using CNL001 (50 nM CNL001, first column): 80.831%
- YFP fluorescence quenching using CNL001 (50 nM CNL001, second column): 80.605%
- YFP fluorescence quenching using ABT-126 (50 nM abt): −16.22%
- YFP fluorescence quenching using CNL001 (100 nM CNL001, first column): 81%
- YFP fluorescence quenching using CNL001 (100 nM CNL001, second column): 80.663%
- YFP fluorescence quenching using CNL002 (100 nM CNL002): −3.76%
- YFP fluorescence quenching using ABT-126 (100 nM abt): −11.89%
- YFP fluorescence quenching using AZD-0328 (100 nM azd0328): 27.56%
- YFP fluorescence quenching using TC-5619/Bradanicline (100 nM brd): 78.94%
- YFP fluorescence quenching using ABT-126 (300 nM abt): 39.23%
- YFP fluorescence quenching using AZD-0328 (300 nM azd0328): 73.35%
- YFP fluorescence quenching using TC-5619/Bradanicline (300 nM brd): 77.06%
- YFP fluorescence quenching using Facinicline (300 nM fac): 74.96
- YFP fluorescence quenching using Varenicline (300 nM var, first column): 6.915
- YFP fluorescence quenching using Varenicline (300 nM var, second column): 6.513
- YFP fluorescence quenching using Varenicline (500 nM var, first column): 27.593
- YFP fluorescence quenching using Varenicline (500 nM var, second column): 29.863
- YFP fluorescence quenching using CNL001 (1 uM CNL001, first column): 81.293%
- YFP fluorescence quenching using CNL001 (1 uM CNL001, second column): 81.428%
- YFP fluorescence quenching using CNL002 (1 uM CNL002): 68.51%
- YFP fluorescence quenching using ABT-126 (1 uM abt): 66.5%
- YFP fluorescence quenching using TC-5619/Bradanicline (1 uM brd): 78.61%
- YFP fluorescence quenching using TC-6987 (1 uM tc6987): 53.37
- YFP fluorescence quenching using Varenicline (1 uM var, first column): 67.499
- YFP fluorescence quenching using Varenicline (1 uM var, second column): 65.57
- YFP fluorescence quenching using Facinicline (10 uM fac): 81.97
- YFP fluorescence quenching using TC-6987 (10 uM tc6987): 74.23
- YFP fluorescence quenching using CNL002 (30 uM CNL002): 77.77%
- YFP fluorescence quenching using AZD-0328 (30 uM azd0328): 77.14%
- YFP fluorescence quenching using Facinicline (30 uM fac): 78.31
- YFP fluorescence quenching using TC-6987 (500 uM tc6987): 72.25
- percent quench of YFP fluorescence, 30 nM TC-6683: −22.26%
- percent quench of YFP fluorescence, 300 nM TC-6683: −18.89%
- percent quench of YFP fluorescence, 3 uM TC-6683: −9.45%
- percent quench of YFP fluorescence, 30 uM TC-6683: −9.23%
- percent quench of YFP fluorescence, 100 uM TC-6683: −10.75%
- percent quench of YFP fluorescence, 10 uM ach: 11.07%
- percent quench of YFP fluorescence, 100 uM ach: 43.34%
- percent quench of YFP fluorescence, 1 mM ach: 77.52%
- percent quench of YFP fluorescence, 3 mM ach: 74.89%
